Columns and labels:
[1] = biological target: Endogenous NOTCH2 (MDA-MB-231 cell lysate) (UniProt Q04721 26-2471, limits assumed); test: co-immunoprecipitation of endogenous proteins, MDA-MB-231 lysates (data not shown)
Experimental: (§1) Notch receptor activation can be regulated through direct interactions with binding partners²⁴. […] To address this possibility, co-immunoprecipitation experiments were performed using MBA-MD-231 cells lysates, which express detectable levels of all four Notch receptors (NOTCH1-4). Endogenous ROBO1 co-immunoprecipitated with NOTCH4, but not […], NOTCH2 or NOTCH3 (FIG. 3H and data not shown). Next, the expression and subcellular localization of the NOTCH4 intracellular domain (N4-ICD) and HES1 was examined in control (Scr) and Robo1 (siR1) knockdown HC11 cells. Expression of Robo1 was inhibited in HC11 cells that were then primed for differentiation as described above. […] This effect was not observed in control Robo1 knockdown cells engineered to overexpress Robo1 (siR1+o/e) or cells treated with the γ-secretase inhibitor GSI (siR1+GSI) (FIGS. 3I-3K).
(§2) Adherent cells were lysed in 1 mL of 1× lysis buffer ([…] NaCl, 10 mM Tris-HCl pH8, […] EDTA, 1 mM sodium orthovanadate) supplemented with 1 percent Igepal NP40 (Sigma), 1 mM phenylmethanesulfonylfluoride (PMSF), 1 mM leupeptin, 1 mM aprotinin, and phosphatase inhibitors (Roche Complete). Cell lysate was incubated for 15 minutes at 4° C. with gentle rocking followed by centrifugation at 12,000 rpms for 10 minutes. […]

[2] = biological target: Endogenous NOTCH3 (MDA-MB-231 cell lysate) (UniProt Q9UM47 40-2321, limits assumed); test: as above
Chain of Endogenous NOTCH3 (MDA-MB-231 cell lysate) (Q9UM47 40-2321 limits assumed): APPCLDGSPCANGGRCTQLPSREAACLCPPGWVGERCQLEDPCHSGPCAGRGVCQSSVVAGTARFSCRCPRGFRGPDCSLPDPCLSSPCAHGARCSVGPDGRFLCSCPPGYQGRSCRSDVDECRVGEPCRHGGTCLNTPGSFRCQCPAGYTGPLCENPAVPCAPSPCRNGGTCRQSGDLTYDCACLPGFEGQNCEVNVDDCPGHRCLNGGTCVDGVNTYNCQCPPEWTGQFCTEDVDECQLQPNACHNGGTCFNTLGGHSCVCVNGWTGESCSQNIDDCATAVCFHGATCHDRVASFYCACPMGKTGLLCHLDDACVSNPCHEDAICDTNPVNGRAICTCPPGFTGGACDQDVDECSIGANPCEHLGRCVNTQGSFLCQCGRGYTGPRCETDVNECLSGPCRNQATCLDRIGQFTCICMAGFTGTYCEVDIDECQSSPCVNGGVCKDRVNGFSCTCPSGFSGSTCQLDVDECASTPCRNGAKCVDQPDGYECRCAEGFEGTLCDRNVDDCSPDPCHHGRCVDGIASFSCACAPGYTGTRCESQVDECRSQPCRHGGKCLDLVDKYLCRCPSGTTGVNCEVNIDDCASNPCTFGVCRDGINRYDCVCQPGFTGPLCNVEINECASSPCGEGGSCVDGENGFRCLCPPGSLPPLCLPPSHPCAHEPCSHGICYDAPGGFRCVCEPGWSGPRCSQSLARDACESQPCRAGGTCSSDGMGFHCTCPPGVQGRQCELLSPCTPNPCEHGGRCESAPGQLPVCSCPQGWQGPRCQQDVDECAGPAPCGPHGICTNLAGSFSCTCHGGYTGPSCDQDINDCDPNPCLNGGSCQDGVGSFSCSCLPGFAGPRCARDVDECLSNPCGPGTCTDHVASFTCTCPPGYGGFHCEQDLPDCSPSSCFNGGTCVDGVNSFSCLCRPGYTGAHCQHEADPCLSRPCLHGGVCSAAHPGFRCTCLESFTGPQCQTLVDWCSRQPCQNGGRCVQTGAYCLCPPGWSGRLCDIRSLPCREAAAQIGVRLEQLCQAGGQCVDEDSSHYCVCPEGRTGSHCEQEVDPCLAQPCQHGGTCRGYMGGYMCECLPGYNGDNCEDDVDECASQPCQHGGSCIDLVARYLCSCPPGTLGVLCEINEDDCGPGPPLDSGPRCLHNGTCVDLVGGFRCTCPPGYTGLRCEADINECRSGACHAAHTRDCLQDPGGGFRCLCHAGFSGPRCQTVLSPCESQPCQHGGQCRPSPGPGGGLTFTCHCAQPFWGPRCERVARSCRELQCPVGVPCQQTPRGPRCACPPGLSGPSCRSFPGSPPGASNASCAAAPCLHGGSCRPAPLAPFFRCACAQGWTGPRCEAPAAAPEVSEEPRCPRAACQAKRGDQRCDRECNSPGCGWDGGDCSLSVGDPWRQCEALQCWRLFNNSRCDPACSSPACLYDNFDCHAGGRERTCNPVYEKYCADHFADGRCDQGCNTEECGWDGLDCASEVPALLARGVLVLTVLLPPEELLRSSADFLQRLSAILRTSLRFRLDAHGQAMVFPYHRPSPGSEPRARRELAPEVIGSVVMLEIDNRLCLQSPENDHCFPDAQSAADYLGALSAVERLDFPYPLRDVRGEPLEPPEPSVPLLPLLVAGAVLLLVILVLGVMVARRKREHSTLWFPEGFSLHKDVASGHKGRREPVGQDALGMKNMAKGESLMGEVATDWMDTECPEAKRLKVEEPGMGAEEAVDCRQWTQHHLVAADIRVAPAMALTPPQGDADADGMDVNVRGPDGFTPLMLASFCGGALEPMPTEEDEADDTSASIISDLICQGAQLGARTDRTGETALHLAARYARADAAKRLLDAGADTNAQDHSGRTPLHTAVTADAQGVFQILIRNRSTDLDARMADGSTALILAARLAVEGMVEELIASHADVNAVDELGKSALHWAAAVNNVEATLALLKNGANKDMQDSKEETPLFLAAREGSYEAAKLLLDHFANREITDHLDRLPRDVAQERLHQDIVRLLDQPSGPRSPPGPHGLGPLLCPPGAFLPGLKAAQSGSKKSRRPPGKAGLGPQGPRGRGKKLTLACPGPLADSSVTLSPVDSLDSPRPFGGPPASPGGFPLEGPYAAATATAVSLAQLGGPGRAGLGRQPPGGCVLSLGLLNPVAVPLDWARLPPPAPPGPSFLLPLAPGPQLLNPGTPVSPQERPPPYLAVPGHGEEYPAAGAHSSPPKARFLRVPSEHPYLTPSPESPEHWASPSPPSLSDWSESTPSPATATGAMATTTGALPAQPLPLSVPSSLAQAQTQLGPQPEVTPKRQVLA
Experimental: as §1, §2

[3] = biological target: Endogenous NOTCH1 (MDA-MB-231 cell lysate) (UniProt P46531 19-2555, limits assumed); test: co-immunoprecipitation of endogenous proteins, MDA-MB-231 lysates, Western blot
Chain of Endogenous NOTCH1 (MDA-MB-231 cell lysate) (P46531 19-2555 limits assumed): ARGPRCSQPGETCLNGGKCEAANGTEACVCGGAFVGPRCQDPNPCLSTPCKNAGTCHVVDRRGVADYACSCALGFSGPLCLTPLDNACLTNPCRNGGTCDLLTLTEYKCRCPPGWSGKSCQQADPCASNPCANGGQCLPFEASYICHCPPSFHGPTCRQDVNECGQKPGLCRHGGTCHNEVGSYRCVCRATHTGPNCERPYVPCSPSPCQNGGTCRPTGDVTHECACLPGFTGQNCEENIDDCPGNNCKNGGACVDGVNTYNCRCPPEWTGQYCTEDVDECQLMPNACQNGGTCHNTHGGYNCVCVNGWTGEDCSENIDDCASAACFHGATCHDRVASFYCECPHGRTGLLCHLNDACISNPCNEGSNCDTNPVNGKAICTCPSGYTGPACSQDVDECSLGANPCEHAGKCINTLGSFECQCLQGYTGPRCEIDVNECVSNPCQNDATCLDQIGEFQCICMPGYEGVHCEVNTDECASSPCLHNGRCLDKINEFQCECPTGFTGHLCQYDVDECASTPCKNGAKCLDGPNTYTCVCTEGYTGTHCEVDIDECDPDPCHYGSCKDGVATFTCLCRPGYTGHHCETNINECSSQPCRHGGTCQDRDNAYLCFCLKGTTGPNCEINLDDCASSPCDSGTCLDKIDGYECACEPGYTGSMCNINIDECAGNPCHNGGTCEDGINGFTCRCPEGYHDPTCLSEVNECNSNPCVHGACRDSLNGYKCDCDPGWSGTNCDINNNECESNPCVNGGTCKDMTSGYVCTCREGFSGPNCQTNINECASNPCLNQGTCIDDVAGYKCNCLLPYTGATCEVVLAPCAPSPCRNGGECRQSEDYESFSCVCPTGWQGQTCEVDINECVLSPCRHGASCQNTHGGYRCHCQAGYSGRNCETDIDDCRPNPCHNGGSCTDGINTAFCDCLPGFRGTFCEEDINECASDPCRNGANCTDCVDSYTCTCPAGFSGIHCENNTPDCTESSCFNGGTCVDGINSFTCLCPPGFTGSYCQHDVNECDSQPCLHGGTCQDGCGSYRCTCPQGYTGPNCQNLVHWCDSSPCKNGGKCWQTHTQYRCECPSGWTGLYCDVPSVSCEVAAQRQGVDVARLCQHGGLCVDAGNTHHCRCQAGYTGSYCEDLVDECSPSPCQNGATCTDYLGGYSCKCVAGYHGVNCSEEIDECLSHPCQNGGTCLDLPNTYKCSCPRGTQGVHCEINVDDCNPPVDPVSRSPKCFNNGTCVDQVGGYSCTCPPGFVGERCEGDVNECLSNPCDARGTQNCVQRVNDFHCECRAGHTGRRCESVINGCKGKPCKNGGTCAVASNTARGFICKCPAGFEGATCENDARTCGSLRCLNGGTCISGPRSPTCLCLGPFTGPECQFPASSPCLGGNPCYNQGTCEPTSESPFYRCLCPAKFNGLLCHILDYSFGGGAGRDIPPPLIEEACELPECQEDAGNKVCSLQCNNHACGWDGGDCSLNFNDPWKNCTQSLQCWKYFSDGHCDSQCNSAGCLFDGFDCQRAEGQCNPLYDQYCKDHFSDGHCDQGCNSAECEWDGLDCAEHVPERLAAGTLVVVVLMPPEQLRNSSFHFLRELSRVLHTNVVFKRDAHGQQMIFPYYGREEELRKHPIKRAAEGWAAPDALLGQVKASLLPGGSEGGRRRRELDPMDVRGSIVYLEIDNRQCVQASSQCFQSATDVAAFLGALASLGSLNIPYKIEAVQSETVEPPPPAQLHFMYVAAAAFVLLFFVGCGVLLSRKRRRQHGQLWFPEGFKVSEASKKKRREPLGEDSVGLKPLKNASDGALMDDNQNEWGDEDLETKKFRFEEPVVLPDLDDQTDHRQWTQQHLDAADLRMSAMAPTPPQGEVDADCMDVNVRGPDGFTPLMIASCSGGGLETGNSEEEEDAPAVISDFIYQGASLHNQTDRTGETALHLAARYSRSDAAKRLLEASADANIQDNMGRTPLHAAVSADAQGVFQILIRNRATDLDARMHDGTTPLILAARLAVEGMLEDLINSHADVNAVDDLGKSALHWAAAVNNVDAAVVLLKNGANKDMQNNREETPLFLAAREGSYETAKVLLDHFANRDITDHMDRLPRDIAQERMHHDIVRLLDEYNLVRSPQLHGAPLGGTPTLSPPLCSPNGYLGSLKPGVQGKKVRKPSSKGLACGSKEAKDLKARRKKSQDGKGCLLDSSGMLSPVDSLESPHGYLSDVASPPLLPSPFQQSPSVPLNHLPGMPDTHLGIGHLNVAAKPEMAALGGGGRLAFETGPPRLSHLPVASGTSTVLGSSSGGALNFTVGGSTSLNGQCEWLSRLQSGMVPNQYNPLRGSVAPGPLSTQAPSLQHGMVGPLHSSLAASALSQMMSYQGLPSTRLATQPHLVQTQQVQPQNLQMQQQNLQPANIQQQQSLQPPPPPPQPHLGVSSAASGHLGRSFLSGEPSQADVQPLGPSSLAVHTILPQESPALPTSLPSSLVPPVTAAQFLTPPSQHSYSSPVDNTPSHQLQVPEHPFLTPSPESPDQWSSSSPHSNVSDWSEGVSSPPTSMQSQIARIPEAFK
Experimental: as §1, §2

Measured: binding result

B1: Endogenous ROBO1 (MDA-MB-231 and HEK293 cell lysates) (receptor, UniProt Q9Y6N7 26-1651, looked up)
chain: QLIPDPEDVERGNDHGTPIPTSDNDDNSLGYTGSRLRQEDFPPRIVEHPSDLIVSKGEPATLNCKAEGRPTPTIEWYKGGERVETDKDDPRSHRMLLPSGSLFFLRIVHGRKSRPDEGVYVCVARNYLGEAVSHNASLEVAILRDDFRQNPSDVMVAVGEPAVMECQPPRGHPEPTISWKKDGSPLDDKDERITIRGGKLMITYTRKSDAGKYVCVGTNMVGERESEVAELTVLERPSFVKRPSNLAVTVDDSAEFKCEARGDPVPTVRWRKDDGELPKSRYEIRDDHTLKIRKVTAGDMGSYTCVAENMVGKAEASATLTVQEPPHFVVKPRDQVVALGRTVTFQCEATGNPQPAIFWRREGSQNLLFSYQPPQSSSRFSVSQTGDLTITNVQRSDVGYYICQTLNVAGSIITKAYLEVTDVIADRPPPVIRQGPVNQTVAVDGTFVLSCVATGSPVPTILWRKDGVLVSTQDSRIKQLENGVLQIRYAKLGDTGRYTCIASTPSGEATWSAYIEVQEFGVPVQPPRPTDPNLIPSAPSKPEVTDVSRNTVTLSWQPNLNSGATPTSYIIEAFSHASGSSWQTVAENVKTETSAIKGLKPNAIYLFLVRAANAYGISDPSQISDPVKTQDVLPTSQGVDHKQVQRELGNAVLHLHNPTVLSSSSIEVHWTVDQQSQYIQGYKILYRPSGANHGESDWLVFEVRTPAKNSVVIPDLRKGVNYEIKARPFFNEFQGADSEIKFAKTLEEAPSAPPQGVTVSKNDGNGTAILVSWQPPPEDTQNGMVQEYKVWCLGNETRYHINKTVDGSTFSVVIPFLVPGIRYSVEVAASTGAGSGVKSEPQFIQLDAHGNPVSPEDQVSLAQQISDVVKQPAFIAGIGAACWIILMVFSIWLYRHRKKRNGLTSTYAGIRKVPSFTFTPTVTYQRGGEAVSSGGRPGLLNISEPAAQPWLADTWPNTGNNHNDCSISCCTAGNGNSDSNLTTYSRPADCIANYNNQLDNKQTNLMLPESTVYGDVDLSNKINEMKTFNSPNLKDGRFVNPSGQPTPYATTQLIQSNLSNNMNNGSGDSGEKHWKPLGQQKQEVAPVQYNIVEQNKLNKDYRANDTVPPTIPYNQSYDQNTGGSYNSSDRGSSTSGSQGHKKGARTPKVPKQGGMNWADLLPPPPAHPPPHSNSEEYNISVDESYDQEMPCPVPPARMYLQQDELEEEEDERGPTPPVRGAASSPAAVSYSHQSTATLTPSPQEELQPMLQDCPEETGHMQHQPDRRRQPVSPPPPPRPISPPHTYGYISGPLVSDMDTDAPEEEEDEADMEVAKMQTRRLLLRGLEQTPASSVGDLESSVTGSMINGWGSASEEDNISSGRSSVSSSDGSFFTDADFAQAVAAAAEYAGLKVARRQMQDAAGRRHFHASQCPRPTSPVSTDSNMSAAVMQKTRPAKKLKHQPGHLRRETYTDDLPPPPVPPPAIKSPTAQSKTQLEVRPVVVPKLPSMDARTDRSSDRKGSSYKGREVLDGRQVVDMRTNPGDPREAQEQQNDGKGRGNKAAKRDLPPAKTHLIQEDILPYCRPTFPTSNNPRDPSSSSSMSSRGSGSRQREQANVGRRNIAEMQVLGGYERGEDNNEELEETES
notes: Endogenous full-length receptor in detergent cell lysate, immunoprecipitated with an anti-ROBO1 antibody; Human is inferred from the cell lines; also called R1
no binding: all assays above

Reference: patent US20200339676A1 (University of California, published 2020)
